Reference: US20260103490A1 (published 2026)

T1: ALFA^ST peptide (Ac-PSRLEEELRRRLTEP-Amide)
T1 construct: also called free ALFA^ST peptide; ALFA peptide
T1 peptide: Ac-PSRLEEELRRRLTEP-NH2


What was measured:
[1] = target: FLAG-HA-MBP-myc-ALFA^ST; assay: dot blot of a dilution series of the MBP fusion
Experimental: Membranes were scanned using Odyssey CLx (Li-COR). Quantifications were performed using ImageStudioLight (Li-COR).

[2] = target: T1, ALFA^ST peptide …; assay: competitive elution of shGFP2-ALFA^ST from NbALFA^PE resin

| Binder | fold lower detection limit than for the other epitope tags [1] | binding result [2] |
| --- | --- | --- |
| NbALFA^ST (NbALFA clone 1G5) (VHH, Alpaca single-domain antibody; also called ALFA Selector^ST (resin-immobilised form); FluoTag-X2 anti-ALFA (fluorophore-coupled form)) VHH: EVQLQESGGGLVQPGGSLRLSCTASGVTISALNAMAMGWYRQAPGERRVMVAAVSERGNAMYRESVQGRFTVTRDFTNKMVSLQMDNLKPEDTAVYYCHVLEDRVDSFHDYWGQGTQVTVSS | ~10 fold |  |
| NbALFA^PE (NbALFA mutant for Peptide Elution) (VHH, Weaker mutant of NbALFA^ST; used immobilised on agarose (ALFA Selector^PE) or in solution (MST); also called ALFA Selector^PE (resin-immobilised form)) VHH: EVQLQESGGGLVQPGGSLRLSCTASGVTISALNAMAMGWYRQAPGEERVMVAAVSSRGNAMYRESVQGRFTVTRDFTNKMVSLQMDNLKPEDTAVYYCHVLEDRVDSFHDYWGQGTQVTVSS |  | binds |
